doi:10.1101/2022.02.17.480956 (bioRxiv, 2022)

Legend:
COUP-TFII-GST [1] = target: T1, COUP-TFII-GST (mouse, UniProt P43135 1-414); assay: EMSA
T1 sequence: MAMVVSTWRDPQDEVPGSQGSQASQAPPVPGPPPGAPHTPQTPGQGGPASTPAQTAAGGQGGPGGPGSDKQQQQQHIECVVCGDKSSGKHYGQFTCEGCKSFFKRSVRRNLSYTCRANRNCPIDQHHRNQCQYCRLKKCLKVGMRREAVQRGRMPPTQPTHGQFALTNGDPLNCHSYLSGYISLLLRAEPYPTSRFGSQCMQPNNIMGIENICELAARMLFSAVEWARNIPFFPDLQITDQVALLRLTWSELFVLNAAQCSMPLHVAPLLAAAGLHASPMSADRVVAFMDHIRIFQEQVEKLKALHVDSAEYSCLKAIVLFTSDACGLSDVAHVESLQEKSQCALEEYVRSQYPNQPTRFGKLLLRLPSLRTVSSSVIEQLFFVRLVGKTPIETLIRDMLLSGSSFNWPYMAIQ

COUP-TFII;NKX2-1 = target: T2, COUP-TFII;NKX2-1 (mouse;, UniProt P43135;P50220 1-414;1-372, |); assay: EMSA
T2 sequence 1: T1 sequence
T2 sequence 2: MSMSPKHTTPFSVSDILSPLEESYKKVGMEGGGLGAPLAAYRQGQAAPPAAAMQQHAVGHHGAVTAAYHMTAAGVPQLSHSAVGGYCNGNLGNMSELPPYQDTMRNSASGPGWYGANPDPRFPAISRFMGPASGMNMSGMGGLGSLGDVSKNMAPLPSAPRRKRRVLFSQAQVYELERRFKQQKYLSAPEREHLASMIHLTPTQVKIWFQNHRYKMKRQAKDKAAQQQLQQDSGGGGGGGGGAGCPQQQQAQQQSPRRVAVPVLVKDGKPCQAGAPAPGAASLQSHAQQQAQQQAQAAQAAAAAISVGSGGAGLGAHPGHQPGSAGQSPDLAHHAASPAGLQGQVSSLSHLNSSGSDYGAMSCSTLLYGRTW

[2] = target: T3, recombinant COUP-TFII (construct not told for this experiment) (mouse, UniProt P43135 1-414); assay: native gel or EMSA
T3 sequence (looked up): T1 sequence

COUP-TFII-GST [3] = target: T4, COUP-TFII-GST (mouse, UniProt P43135 1-414); assay: native gel or EMSA
T4 sequence (looked up): T1 sequence

B1: CE_ΔC_AB (dsDNA)
DNA 1: CCATGCACTTGAAAAAAAATGGAAAAACACCTCC
DNA 2: GGAGGTGTTTTTCCATTTTTTTTCAAGTGCATGG
B1: no binding (COUP-TFII-GST [1]).

B2: Nrp2 NCCE (dsDNA)
DNA 1: TTGCCAAATTATGTGACCTTTGGCAGACCAGCTG
DNA 2: CAGCTGGTCTGCCAAAGGTCACATAATTTGGCAA
B2: binds (COUP-TFII;NKX2-1).

B3: recombinant NKX2-3 (natural protein, mouse, UniProt P97334 1-362, looked up)
chain: MMLPSPVTSTPFSVKDILNLEQQRHFHGAHLQAELEQHFHSAPCMLATAEGTQFSDAGEEDEEEEGEKLSYLNSLAAAEGHGDSGLCPQSYVHTVLRDACSGPKEQEEEVVSERSQKSCQLKKSLEAAGDCKTSEDGERPKPRSRRKPRVLFSQAQVFELERRFKQQRYLSAPEREHLASSLKLTSTQVKIWFQNRRYKCKRQRQDKSLELGTHAPPPPPRRVAVPVLVRDGKPCVTPSAQTYGSPYGVGAGAYSYNSFPAYGYGNSAAAAAAAAAAAAAAAAYSGSYGCAYPTGGGGGGGGTASAATTAMQPACSATGGGSFVNVSNLGGFGSGGGAQPLHQGAAAGSACTQGTLQGIRAW
B3: binds [2]; binds (COUP-TFII-GST [3]).
